For 39 variants, abundance fitness results are on record in the Human Domainome abundance scans (Beltran et al. 2025).

± gives the uncertainty stated by the source.

The chains are these.
B1: POU domain, class 4, transcription factor 2, residues 256 to 327; numbered along this chain, Q12837 (parent)
chain: RDLEAFAERFKQRRIKLGVTQADVGSALANLKIPGVGSLSQSTICRFESLTLSHNNMIALKPILQAWLEEAE
B2: RAS guanyl-releasing protein 1, residues 539 to 593; numbered along this chain, O95267 (parent)
chain: GFPHNFQETTYLKPTFCDNCAGFLWGVIKQGYRCKDCGMNCHKQCKDLVVFECKK

The variants in the first series derive from B1. Kind of series: abundance fitness (aPCA) (normalised: wild type 0, dead -1); higher = more abundant; growth selection in yeast, the domain comes from the species named. Particulars: Homo sapiens.
RDLEAFAERFKQRRIKLGVTQADVGSALANLKIPGVGSLSQSTICRFESLTLSHNKMIALKPILQAWLEEAE: the abundance fitness worked out at 0.048 ± 0.17.

With RDLEAFAERFKQRRIKLGVTQADVGSALANLHIPGVGSLSQSTICRFESLTLSHNNMIALKPILQAWLEEAE, the abundance fitness is -0.178 ± 0.17.

As for RDLEAFAERFKQRRIKLGVTQADVGSALANLRIPGVGSLSQSTICRFESLTLSHNNMIALKPILQAWLEEAE, the abundance fitness is -0.084 ± 0.047.

As for RDLEAFACRFKQRRIKLGVTQADVGSALANLKIPGVGSLSQSTICRFESLTLSHNNMIALKPILQAWLEEAE, the abundance fitness is -0.313 ± 0.076.

In the case of RDLEAFAERFKQRRIKLGVTQADVGSALANLKIPWVGSLSQSTICRFESLTLSHNNMIALKPILQAWLEEAE, the abundance fitness is -0.525 ± 0.23.

Turning to RDLEAFAERFKQRRIKLGVTQADVGSALANLKIPTVGSLSQSTICRFESLTLSHNNMIALKPILQAWLEEAE, the abundance fitness was -0.365 ± 0.12.

With RDLEAFAERFKQRRIKLGVTQADVGSALANLKIPGVGSLSQSTWCRFESLTLSHNNMIALKPILQAWLEEAE, the abundance fitness is -1.03 ± 0.37.

As for RDLEAFAERFKQRRIKLGVTQADVGSALANLKIPGVGSLSQSTICRFESLTLSHNNMIILKPILQAWLEEAE, the abundance fitness worked out at 0.027 ± 0.14.

As to RDLEAFAERFKQRRIKLGVTQADVGSALANLKIPGVGSLSQSTICRFESLTLSHNNMIALSPILQAWLEEAE, the abundance fitness is -0.42 ± 0.087.

For the variant RDLEAFAERFKQRRIKLGVTQADVGSALANLKIPGVGSLSQSTICRFESLTLSHNNMIALKPILQAWLEPAE, the abundance fitness is -0.826 ± 0.16.

RDLEAFAERFKQRRIKLGVTQADVGSALANLKIPGVGSLSQPTICRFESLTLSHNNMIALKPILQAWLEEAE: the abundance fitness is -0.381 ± 0.059.

On to RDLEAFAERFKQRRIKLGVTQADVGSALANLKIPGVGSLSQQTICRFESLTLSHNNMIALKPILQAWLEEAE, for which the abundance fitness was -0.084 ± 0.11.

In the case of RDLEAFAERFKQRRIKLGVTQADFGSALANLKIPGVGSLSQSTICRFESLTLSHNNMIALKPILQAWLEEAE, the abundance fitness was -0.642 ± 0.18.

Take RDLEAFAERFKQRRIKLGVTQADPGSALANLKIPGVGSLSQSTICRFESLTLSHNNMIALKPILQAWLEEAE: the abundance fitness is -0.928 ± 0.24.

With RDLEAFAERCKQRRIKLGVTQADVGSALANLKIPGVGSLSQSTICRFESLTLSHNNMIALKPILQAWLEEAE, the abundance fitness was -0.817 ± 0.33.

RDLEAFAERFKQRRIKLGVTQADVISALANLKIPGVGSLSQSTICRFESLTLSHNNMIALKPILQAWLEEAE: the abundance fitness is -0.145 ± 0.18.

Consider RDLEAFAERFKQRRIKLGVTQADVLSALANLKIPGVGSLSQSTICRFESLTLSHNNMIALKPILQAWLEEAE, for which the abundance fitness is -0.031 ± 0.059.

In the case of RDLEAFMERFKQRRIKLGVTQADVGSALANLKIPGVGSLSQSTICRFESLTLSHNNMIALKPILQAWLEEAE, the abundance fitness is -0.774 ± 0.3.

Consider RDLEAFAERFKQRRIKLGVTQADVGSALANLKIPGVGSTSQSTICRFESLTLSHNNMIALKPILQAWLEEAE, for which the abundance fitness is -0.204 ± 0.096.

Consider RDLEAFAERFKQRRIKLGVTQADVGSALANLKIPGVGSDSQSTICRFESLTLSHNNMIALKPILQAWLEEAE, for which the abundance fitness is -0.413 ± 0.46.

As for RDLEAFAERFKQRRIKLGVTQADVGSALANLKIPGVGSWSQSTICRFESLTLSHNNMIALKPILQAWLEEAE, the abundance fitness was -0.387 ± 0.12.

Consider RDLEAFAERFKQRRIKLGVTQADVGSALANLKIPGVGSLSQSTICRFESLTLSHNNMIALKPTLQAWLEEAE, for which the abundance fitness was -0.098 ± 0.09.

In the case of RDLEAFAERFKQRRIKLGVTQADVGSALANLKIPGVGSLSQSTICRFESLTLSHNNMIALKPDLQAWLEEAE, the abundance fitness is -0.438 ± 0.12.

Regarding RDQEAFAERFKQRRIKLGVTQADVGSALANLKIPGVGSLSQSTICRFESLTLSHNNMIALKPILQAWLEEAE, the abundance fitness is -0.437 ± 0.078.

Consider RDLEAFAERFKQRRQKLGVTQADVGSALANLKIPGVGSLSQSTICRFESLTLSHNNMIALKPILQAWLEEAE, for which the abundance fitness was -0.066 ± 0.034.

In the case of RDLEAFAERFKQRREKLGVTQADVGSALANLKIPGVGSLSQSTICRFESLTLSHNNMIALKPILQAWLEEAE, the abundance fitness was -0.226 ± 0.11.

Consider RDLEAFAERFKQRRIKLGVWQADVGSALANLKIPGVGSLSQSTICRFESLTLSHNNMIALKPILQAWLEEAE, for which the abundance fitness was -0.731 ± 0.17.

Turning to RDLEAFAERFKQRRIKLGVTQADVGSALANLKIPGVGSLSQSTICRFQSLTLSHNNMIALKPILQAWLEEAE, the abundance fitness is -0.833 ± 0.15.

In a further series the parent is B2. The description is as above. To be noted: Homo sapiens.
On to GFPHNFQETTYLKPTFCDNCAGFLWGVIKQGYRCKDCGMNCHKQCKDLVVFECVK, for which the abundance fitness was -0.248 ± 0.076.

Regarding GFPHNFQETTYLKPTFCDNCAGFLWGVIKQGYRCKDCGMNCHKQCKDLVVFECWK, the abundance fitness is -0.378 ± 0.13.

Consider GFPHNFQETTYLKPTFCDNCAGFLWGVIKQGYRCKDCGMNCHKQCKDLVVFECKS, for which the abundance fitness was determined as 0.077 ± 0.13.

Regarding GFPHNFQETTYLKPTFCDNCAGFLWGVIKQGYRCKDCGMNCHKQCKDLVVFECKH, the abundance fitness was -0.597 ± 0.26.

Regarding GFPHNFQETTYLKPTFCDNCAGFLWGVIKQGYRCKDCGMNCHKQCKDLVVFECKN, the abundance fitness was -0.138 ± 0.18.

For GFPHNFQETTYLKPTFCDNCAGFLWGVIKQGYRCKDCGMNCHKQCKDLVVFECKT, the abundance fitness is -0.271 ± 0.16.

As for GFPHNFQETTYLKPTFCDNCAGFLWGVIKQGYRCKDCGMNCHKQCKDLVVFECKG, the abundance fitness is -0.084 ± 0.14.

For GFPHNFQETTYLKPTFCDNCAGFLWGVIKQGYRCKDCGMNCHKQCKDLVVFECKR, the abundance fitness is -0.435 ± 0.37.

For GFPHNFQETTYLKPTFCDNCAGFLWGVIKQGYRCKDCGMNCHKQCKDLVVFECKL, the abundance fitness is -0.718 ± 0.32.

In the case of GFPHNFQETTYLKPTFCDNCAGFLWGVIKQGYRCKDCGMNCHKQCKDLVVFECKD, the abundance fitness was -0.528 ± 0.24.

With GFPHNFQETTYLKPTFCDNCAGFLWGVIKQGYRCKDCGMNCHKQCKDLVVFECKE, the abundance fitness was -0.242 ± 0.31.
